The text below walks through data of US20260015426A1.

Positions count from the first letter of the chain named.

Common to all, as to assay: ELISA, mAb at 10 nM
Assay [1] concerns the target hu-M-IL1RAP-D3 construct, positions K238-T367 (human).
In assay [2] the target is hu-M-IL1RAP-D1 construct, positions S21-Q133 (human).
Assay [3] addresses hu-M-IL1RAP-D1D2 construct, positions S21-P237 (human).

hu-M-IL1RAP-D1D2 construct, positions S21-P237 (human), sequence (chain, as listed by the source limits assumed): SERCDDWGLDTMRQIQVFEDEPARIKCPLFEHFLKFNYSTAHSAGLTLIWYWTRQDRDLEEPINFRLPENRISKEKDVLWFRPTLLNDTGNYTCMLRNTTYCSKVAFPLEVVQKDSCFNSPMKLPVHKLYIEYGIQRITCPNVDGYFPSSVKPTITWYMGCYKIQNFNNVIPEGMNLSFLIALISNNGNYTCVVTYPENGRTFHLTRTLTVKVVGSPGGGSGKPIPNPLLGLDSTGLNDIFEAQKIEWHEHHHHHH
hu-M-IL1RAP-D1 construct, positions S21-Q133 (human), sequence (chain, as listed by the source limits assumed): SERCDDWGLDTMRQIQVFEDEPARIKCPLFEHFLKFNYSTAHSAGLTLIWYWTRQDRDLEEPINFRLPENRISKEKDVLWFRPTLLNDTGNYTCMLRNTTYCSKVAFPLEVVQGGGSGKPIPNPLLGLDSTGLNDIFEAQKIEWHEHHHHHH
hu-M-IL1RAP-D3 construct, positions K238-T367 (human), sequence (chain, as listed by the source limits assumed): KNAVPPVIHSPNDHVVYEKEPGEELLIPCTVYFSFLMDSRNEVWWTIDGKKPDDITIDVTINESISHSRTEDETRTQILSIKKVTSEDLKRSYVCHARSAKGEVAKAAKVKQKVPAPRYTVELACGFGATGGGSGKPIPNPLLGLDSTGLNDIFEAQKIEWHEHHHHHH

B1: 9D5 (purified mAb from hybridoma 9D5) (antibody, V domains shown)
VH: QVQLQQSGAELARPGASVKFSCKASGYTFTSYWMQWVKQRPGQGLEWIGTIYPGDGNTRYTQKFKGKATLTADKSSSTAYMQLSGLASEDSAVYYCARGYFGNLVFDVWGAGTTVTVSS
VL: DIKMTQSPSSMYASLGERVTITCKASQDINTYLSWFLQKPGKSPKTLIYRADRLVDGVPSRFSGGGSGQDYSLTISSLEYEDLGIYYCLQYDEFPYTFGSGTKLEIK
For the molecule B1, the A450 in assay [1] turned out to be 0.045 A450; in assay [2], 0.047 A450.

B2: 10A11 (purified mAb from hybridoma 10A11) (antibody, V domains shown)
VH: EVQLQQSGAELVKPGASVRLSCTSSGFNIKDYFMHWVKQRTEQGLEWVGRIDPEDGETQYAPNFQDKATITVDTSSNTVYLQLSSLTSEDTAVYYCFRPLYYGNSPWFAYWGQGTLVTVSP
VL: DIQMTQTTSSLSASLGDRVTISCRASQDISNYLNWYQQKPDGTVKLLIYYTSTLHSGVPSRFSGSGSGTDYSLTISNLEPEDIATYYCHQYSKFPPTFGSGTKLEIK
For the molecule B2, the A450 in assay [3] and in assay [2] was 0.046 A450 each time.

B3: 11C5(Hy) (purified mAb from the 11C5 hybridoma) (antibody, V domains shown)
VH: EVQLVESGGGLVKPGGSLKLSCAASGFTFSNYAMSWVRQTPEKRLEWVATVTEGGDYNYCLDDVKGRFTISRDNANDNLYLQMSHLKSEDSARYYCARDRWPYFFDYWGQGTTLTVSS
VL: DIQMTQSPASLSVSVGETVTITCRASENIYSNLAWYQQKQGRSPQLLVYGAKNLADGVPSRFSGSGSGTQYSLNINSLQSEDFGTYYCQHFWTTPRTFGGGTKLEIK
For B3, the A450 in assay [3] and in assay [2] was 0.048 A450 each time.

B4: 13D8 (purified mAb from hybridoma 13D8) (antibody, V domains shown)
VH: EVQLVESGGGLVKPGGSLKLSCTASGFTFSNYAMSWVRQTPEKRLEWVATISDGGNYTYYPDNVKGRFTISRDIAKNNLYLQMSHLKSEDTAMYYCARDRWPYFFDFWGQGTTLTVSS
VL: B3 VL with E27D, Q38E, R42K, K52T, N74K, T85S, T97S, I106L
For B4, the A450 in assay [3] was 0.044 A450; in assay [2], 0.046 A450.

B5: 8H1 (purified mAb from hybridoma 8H1) (antibody, V domains shown)
VH: QVQLQQSGPELVKSGASVRISCKASGYAFSGSWMNWVKQRPGKGLEWIGRIYPGDGNTNYNGKFKDKATLTADKSSSTAFMQLSSLTSEDSAVYFCARDYYLFYFDYWGQGTTLTVSS
VL: NIVMTQTPKFLPVAAEDRVIITCKASQDVSNEVAWYQQKPGQSPKLLMYYASNRYTGVPDRFTGSGSGTDFTFTISSVQVEDLAVYFCQQHYSSPLTFGAGTKLELK
Turning to B5, the A450 in assay [1] and in assay [2] was 0.045 A450 each time.
